Data published in paper PMC3878766 (2010).

Target: T1, Tolloid-like 1 (TLL-1) (Homo sapiens, UniProt O43897)
T1 chain: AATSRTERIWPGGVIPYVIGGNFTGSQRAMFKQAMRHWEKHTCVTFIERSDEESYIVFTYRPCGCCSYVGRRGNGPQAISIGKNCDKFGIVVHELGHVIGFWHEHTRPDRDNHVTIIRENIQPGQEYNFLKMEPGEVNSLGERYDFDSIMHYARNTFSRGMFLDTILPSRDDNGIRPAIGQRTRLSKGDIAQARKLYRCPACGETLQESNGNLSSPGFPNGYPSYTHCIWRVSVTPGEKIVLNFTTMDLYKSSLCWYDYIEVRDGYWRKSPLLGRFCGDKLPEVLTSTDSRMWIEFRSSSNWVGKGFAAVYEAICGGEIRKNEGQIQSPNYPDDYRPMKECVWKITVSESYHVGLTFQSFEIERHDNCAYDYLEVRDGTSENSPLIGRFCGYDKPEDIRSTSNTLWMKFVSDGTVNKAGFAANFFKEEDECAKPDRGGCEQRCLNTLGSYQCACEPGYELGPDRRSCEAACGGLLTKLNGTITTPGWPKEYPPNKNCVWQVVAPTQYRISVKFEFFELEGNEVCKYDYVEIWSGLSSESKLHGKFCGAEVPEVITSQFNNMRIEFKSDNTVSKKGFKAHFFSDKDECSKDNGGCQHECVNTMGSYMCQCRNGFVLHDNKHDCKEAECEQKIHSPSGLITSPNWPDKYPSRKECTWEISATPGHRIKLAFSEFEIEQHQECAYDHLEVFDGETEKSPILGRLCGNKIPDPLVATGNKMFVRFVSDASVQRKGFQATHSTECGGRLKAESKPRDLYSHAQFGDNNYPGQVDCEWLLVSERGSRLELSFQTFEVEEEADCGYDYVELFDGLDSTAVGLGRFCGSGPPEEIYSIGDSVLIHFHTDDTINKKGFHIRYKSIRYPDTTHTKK
Assay: sedimentation equilibrium AUC

Kd: 2 nM
B1: Tolloid-like 1 (TLL-1) (protein)
chain: AATSRTERIWPGGVIPYVIGGNFTGSQRAMFKQAMRHWEKHTCVTFIERSDEESYIVFTYRPCGCCSYVGRRGNGPQAISIGKNCDKFGIVVHELGHVIGFWHEHTRPDRDNHVTIIRENIQPGQEYNFLKMEPGEVNSLGERYDFDSIMHYARNTFSRGMFLDTILPSRDDNGIRPAIGQRTRLSKGDIAQARKLYRCPACGETLQESNGNLSSPGFPNGYPSYTHCIWRVSVTPGEKIVLNFTTMDLYKSSLCWYDYIEVRDGYWRKSPLLGRFCGDKLPEVLTSTDSRMWIEFRSSSNWVGKGFAAVYEAICGGEIRKNEGQIQSPNYPDDYRPMKECVWKITVSESYHVGLTFQSFEIERHDNCAYDYLEVRDGTSENSPLIGRFCGYDKPEDIRSTSNTLWMKFVSDGTVNKAGFAANFFKEEDECAKPDRGGCEQRCLNTLGSYQCACEPGYELGPDRRSCEAACGGLLTKLNGTITTPGWPKEYPPNKNCVWQVVAPTQYRISVKFEFFELEGNEVCKYDYVEIWSGLSSESKLHGKFCGAEVPEVITSQFNNMRIEFKSDNTVSKKGFKAHFFSDKDECSKDNGGCQHECVNTMGSYMCQCRNGFVLHDNKHDCKEAECEQKIHSPSGLITSPNWPDKYPSRKECTWEISATPGHRIKLAFSEFEIEQHQECAYDHLEVFDGETEKSPILGRLCGNKIPDPLVATGNKMFVRFVSDASVQRKGFQATHSTECGGRLKAESKPRDLYSHAQFGDNNYPGQVDCEWLLVSERGSRLELSFQTFEVEEEADCGYDYVELFDGLDSTAVGLGRFCGSGPPEEIYSIGDSVLIHFHTDDTINKKGFHIRYKSIRYPDTTHTKK
modifications: Ca2+ (0.5 mM CaCl2), V5-His6 tag
